Data on nine molecules can be found in US11827701B2, “IL-6 binding molecules” (argenx BV, priority 2012, dated 2023).

In experiment [1] the target is biotinylated (prokaryotic) IL-6 (Homo sapiens, UniProt P05231). Put plainly: Surface plasmon resonance (Biacore), biotinylated IL-6 captured on streptavidin sensor chip. Particulars: purified Fab. In kind it is binding. The procedure:
(§1) The binding kinetics of IL-6-specific Fabs that were able to cross-compete with the B-E8 antibody was assessed using surface plasmon resonance (Biacore). Specifically, biotinylated (prokaryotic) IL-6 was captured on a streptavidin biacore sensor chip (CM5-SA) and different concentrations of purified Fabs were injected during 3 minutes following by a 5 minute wash with buffer. From the washing phase the off-rate (kd) was determined, while from the injection phase the on-rate (ka) was calculated using the concentration and off-rate as parameters. […] The binding kinetics of antagonistic purified Fabs (Table 3) and periplasmic fractions of Fab-expressing bacteria (Table 4) were also evaluated by surface plasmon resonance (Biacore) using both bacterially and eukaryotically produced human IL-6 directly coated on a CM5 chip. The Fabs tested had off-rates between 6×10^−4 and 2×10^−5 s^−1.
For orientation: SPR reads the build-up and loss of mass on a sensor chip optically.

In experiment [2] the target is T1, eukaryotically produced human IL-6 (Homo sapiens, UniProt P05231).
T1 construct: purchased Humanzyme HZ-1044; host or cells: Human Embryonic kidney cells
The experiment can be described thus: Surface plasmon resonance (Biacore), eukaryotically produced human IL-6 coated on CM5 chip. Format: binding. The procedure: as §1
(§2) VL chain shuffling was used to improve the affinity of the Fabs 17F10, 18C7, 18C9, 18C11, 20A4, 29B11, 16D2 and 28A6. In this method, the heavy chain of these clones (as a VHCH1 fragment) was reintroduced into the primary phagemid-light chain library (see Example 1). Affinity selections were performed to select for chain shuffled Fabs with an improved affinity for IL-6. The binding kinetics of chain shuffled Fabs were evaluated by surface plasmon resonance (Biacore) using both bacterially and eukaryotically produced human IL-6, and cynomolgus monkey IL-6 (Tables 5-7). The VH and VL amino acid sequences of exemplary IL-6-specific Fabs selected by the VL chain shuffling method are set forth in Table 14 below.
(§3) VH chain shuffling was also used to improve the affinity of the Fab 24D10. In this method, the light chain of 24D10 was reintroduced into the primary phagemid-heavy chain library (see Example 1) and selected using an off-rate assay. In this type of selection, the phage were allowed to bind to antigen on a substrate for 1.5 to 2 hours. At round 2, after 15 washes with PBS-Tween, an additional wash was performed with the presence of excess soluble IL-6. […] This procedure avoids re-binding of such phage to the coated target. […] The binding kinetics of chain shuffled Fabs and the benchmark antibodies, BE8 and GL18, were evaluated by surface plasmon resonance (Biacore) using both bacterially and eukaryotically produced human IL-6 (Tables 8 and 9). The VH and VL amino acid sequences of exemplary IL-6-specific Fabs selected by the VH chain shuffling method are set forth in Table 14 below. […]

Experiment [3] deals with T2, bacterially produced human IL-6 (Homo sapiens, UniProt P05231).
T2 construct: His
The experiment can be described thus: Surface plasmon resonance (Biacore), bacterially produced human IL-6 coated on CM5 chip. In kind it is binding. Conditions: Bact; purified 24D10 chain-shuffled Fabs. How it is done:
as §1, §2, §3

The subject of the next experiment is IL-6. Put plainly: Serum amyloid A (SAA) mouse model, induction by injected IL-6. Format: in vivo. Also noted: SAA, Mean / SAA, Mouse1 / SAA, Mouse2 / SAA, Mouse3 / SAA, Mouse4 / SAA, Mouse5 / SAA, Mouse6: unit not given here. Particulars: 0.1 μg IL-6; for SAA, Mean: mean of 6 mice. How it is done:
The in vivo efficacy of clones 68F2 and 61H7 was further investigated by measuring the ability of these antibodies to block serum amyloid A (SAA) induction in response to injected IL-6. General methods for performing this assay are set forth in WO2006/119115A2, which is hereby incorporated by reference in its entirety. […] Four hours after administration of the antibody, the mice were injected with 0.1 ug of IL-6. After a further 16 hours, blood was taken from the mice and the concentration of Serum Amyloid A was determined by ELISA. The dose responses are also graphically depicted in FIG. 13.

Setting [4] is: Euk IL-6, purified 24D10 chain-shuffled Fabs.

T1 sequence (P05231 30-212): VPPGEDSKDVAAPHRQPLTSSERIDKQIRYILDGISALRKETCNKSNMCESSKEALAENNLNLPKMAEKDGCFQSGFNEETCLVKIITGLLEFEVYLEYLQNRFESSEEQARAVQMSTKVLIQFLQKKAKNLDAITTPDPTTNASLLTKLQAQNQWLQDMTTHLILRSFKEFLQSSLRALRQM
Sequence of biotinylated (prokaryotic) IL-6 (P05231 30-212): as above
T2 sequence (P05231 30-212): as above

B1: 18C11: antagonistic IL-6-specific Fab clone from immunized llama (antibody, listed as Lama glama, V domains shown)
VH: EVQLVESGGGLVQPGGSLRLSCAASGFTFSSYAMSWVRQAPGKGLEWVSAINSGGGSTSYADSVKGRFTISRDNAKNTLYLQMNSLKPEDTAVYYCAKEGDTGWKDPMYDYWGQGTQVTVSS
VL: QSVVTQPSALSVTLGQTAKITCQGGGLRSSYAHWYQQKPGQAPVLVIYDDDSRPSGIPERFSGSSSGGRATLTISGAQAEDEGDYYCQSADSSGNAAVFGGGTHLTVLG
In experiment [1], B1 returned a KA of 7.05e+07 M⁻¹, an Rmax of 22.1 RU, a ka of 55200 M⁻¹ s⁻¹ and a kd of 0.000784 s⁻¹.

B2: 18C9: antagonistic IL-6-specific Fab clone from immunized llama (antibody, listed as Lama glama, V domains shown)
VH: EVQLVESGGGLVQPGGSLRLSCAASGFTFSRNAMSWVRQAPGKGLEWVSAINSGGGSTSYADSVKGRFTISRDNAKNTLYLQMNSLKPEDTAVYYCAKEGYTGWKDPMYDYWGQGTQVTVSS
VL: LNFMLTQPSALSVTLGQTAKITCQGGSLGSRYAHWYQQKPGQAPVLVIYDDDSRPSGIPERFSGSSSGGRATLTISGAQAEDDGDYYCQSADSSGNASVFGGGTHLTVLG
In experiment [1], B2 displayed a KA of 4.67e+07 M⁻¹, an Rmax of 49.9 RU, a ka of 55600 M⁻¹ s⁻¹ and a kd of 0.00119 s⁻¹.

B3: 18F8: antagonistic IL-6-specific Fab clone from immunized llama (antibody, listed as Lama glama, V domains shown)
VH: EVQLVESGGGLVQPGGSLRLSCAASGFTFSRNAMSWVRQAPGKGLEWVSAINSGGGSTSYADSVKGRFTISRDNAKNTLYLQMNSLKPEDTAVYYCAKEGYTGWKDPMYDYWGQGTQVTVSS
VL: QSALTQPSALSVTLGQTAKITCQGGSLGSRYAHWYQQKPGQAPVLVIYDDDSRPSGIPERFSGSSSGGRATLTISGAQAEDEGDYYCQSADTSEHIVFGGGTHLTVLG
In experiment [1], B3 displayed a KA of 6.18e+07 M⁻¹, an Rmax of 51.5 RU, a ka of 48400 M⁻¹ s⁻¹ and a kd of 0.000784 s⁻¹.

B4: 20A4: antagonistic IL-6-specific Fab clone, parental of 68F2 (antibody, listed as Lama glama, V domains shown)
VH: EVQLQESGPGLVKPSQTLSLTCTVSGGSITTRYYAWSWIRQPPGKGLEWMGVIDYDGDTYYSPSLKSRTSISWDTSKNQFSLQLSSVTPEDTAVYYCARDPDVVTGFHYDYWGQGTQVTVSS
VL: ALNFMLTQPPSVSGTLGKTVTISCAGTSSDIGGYNYVSWYQQLPGTAPKLLIHRVSTRASGIPDRFSGSKSGNTASLTISGLRSEDEANYYCASYRNFNNAVFGGGTQLTVLG
In experiment [1], B4 yielded a KA of 1.72e+08 M⁻¹, an Rmax of 48.2 RU, a ka of 288000 M⁻¹ s⁻¹ and a kd of 0.00168 s⁻¹.

B5: 28C6: antagonistic IL-6-specific Fab clone from immunized llama (antibody, listed as Lama glama, V domains shown)
VH: QVQLVESGGGLVQPGGSLRLSCAASGFTFSNYYMTWVRQAPGKGLEWVSSIYSFSGDTAYADSVKGRFTISRDNAKNTLYLQMNKLKSEDTAVYYCTRDLGGVVVTANGYDYWGQGTQVTVSS
VL: DIVMTQTPSSLSASLGDRVTITCQASQSISTELSWYQQKPGQTPKLLIYGASRLQTGVPARFSGSGSGTSFTLTISGLEAEDLATYYCLQDYSWPYSFGSGTRL
On to B5, for which, in experiment [1], the KA is 4.04e+07 M⁻¹, the Rmax amounted to 22.6 RU, the ka was determined as 101000 M⁻¹ s⁻¹ and the kd was 0.0025 s⁻¹.

B6: 24C9: antagonistic IL-6-specific Fab clone from immunized llama (antibody, listed as Lama glama, V domains shown)
VH: QVQLVESGGGLVQPGGSLRLSCAASGFTFSSYRMYWVRQPPGKGLEWVSAISAGGGSTYYGDSVKGRFTISRDNAKNTVYLQMNSLKPEDTALYYCKKSTWADGESDYWGQGTQVTVSS
VL: QTVVTQEPSLSVSPGGTVTLTCGLSSGSVTASNYPGWFQQTPGQAPRALIYSTNDRHSGVPSRFSGSISGNKAALTITGAQPEDEADYYCALDIGDITEFGGGTHLTVLG
In experiment [1], B6 gave a KA of 1.51e+09 M⁻¹, an Rmax of 38.1 RU, a ka of 133000 M⁻¹ s⁻¹ and a kd of 8.77e-05 s⁻¹. The “off-rates (range)” value in experiment [1] is given as ~10^−5 s^−1. The Kd in experiment [1] (read-out: affinities) was 660 pM.

B7: 24E9: antagonistic IL-6-specific Fab clone from immunized llama (antibody, listed as Lama glama, V domains shown)
VH: EVQLVESGGGLVQPGGSLRLSCAASGFTFSTYAMSWVRQAPGKGPEWVSRISSGGGSTNYADSVKGRFTISRDNAKKTLYLQMKSLKPEDTAVYYCANRAGWGMGDYWGQGTQVTVSS
VL: QTVVTQEPSLSVSPGGTVTLTCGLSSGSVTASNYPGWFQQTPGQAPRALIYSTNDRHSGVPSRFSGSISGNKAALTITGAQPEDEADYYCALDIGDITEFGGGTHLTVLG
On to B7, for which, in experiment [1], the KA stood at 8.38e+08 M⁻¹, the Rmax worked out at 41 RU, the ka amounted to 117000 M⁻¹ s⁻¹ and the kd amounted to 0.000139 s⁻¹.

B8: 24D10: antagonistic IL-6-specific Fab clone, parental of 61H7 (antibody, listed as Lama glama, V domains shown)
VH: QLQVVESGGGLVQPGGSLRLSCAASGFTFSSYAMSWVRQAPGKGPEWVSRISSGGGSTSYADSVKGRFTISRDNAKNTLYLQMNSLKPEDTAVYYCANRAGWGMGDYWGQGTQVTVSS
VL: QTVVTQEPSLSVSPGGTVTLTCGLSSGSVTASNYPGWFQQTPGQAPRALIYSTNDRHSGVPSRFSGSISGNKAALTITGAQPEDEADYYCALDIGDITEFGGGTHLTVLG
In experiment [1], B8 gave a KA of 3.7e+09 M⁻¹, an Rmax of 40.6 RU, a ka of 62700 M⁻¹ s⁻¹ and a kd of 1.69e-05 s⁻¹. In addition, the “off-rates (range)” value in experiment [1] is reported as ~10^−5 s^−1. In experiment [2] (setting [4]), this molecule came in with a ka of 250000 M⁻¹ s⁻¹ and a kd of 0.0001 s⁻¹. Moreover, the binding in experiment [2] (periplasmic fractions ('pur' = purified Fab), IL-6 form not stated) stood at 301. In experiment [3], this molecule yielded a ka of 210000 M⁻¹ s⁻¹ and a kd of 0.0001 s⁻¹.

B9: CNTO 136 (antibody, chains of the INN, looked up, V domains shown)
VH: EVQLVESGGGLVQPGGSLRLSCAASGFTFSPFAMSWVRQAPGKGLEWVAKISPGGSWTYYSDTVTGRFTISRDNAKNSLYLQMNSLRAEDTAVYYCARQLWGYYALDIWGQGTTVTVSS
VL: EIVLTQSPATLSLSPGERATLSCSASISVSYMYWYQQKPGQAPRLLIYDMSNLASGIPARFSGSGSGTDFTLTISSLEPEDFAVYYCMQWSGYPYTFGGGTKVEIK
As to B9, in the experiment on IL-6 (Ab dose/mouse 0.31 μg), the “SAA, Mouse1” value was found to be 158; the “SAA, Mouse2” value came out at 175; the “SAA, Mouse3” value is reported as 161; the “SAA, Mouse4” value was determined as 134. In the experiment on IL-6 (Ab dose/mouse 0.31 μg), the “SAA, Mouse5” value is 183; the “SAA, Mouse6” value came to 171; the “SAA, Mean” value was 163.7. Moreover, in the experiment with IL-6 (Ab dose/mouse 1.25 μg), the “SAA, Mouse1” value is recorded as 107; the “SAA, Mouse2” value is 54; the “SAA, Mouse3” value stood at 67; the “SAA, Mouse4” value is given as 56. In the experiment with IL-6 (Ab dose/mouse 1.25 μg), the “SAA, Mouse5” value turned out to be 62; the “SAA, Mouse6” value was 71; the “SAA, Mean” value amounted to 69.5. Moreover, in the experiment with IL-6 (Ab dose/mouse 5 μg), the “SAA, Mouse1” value is listed as 80; the “SAA, Mouse2” value is reported as 80; the “SAA, Mouse3” value was 45; the “SAA, Mouse4” value turned out to be 55. Further, in the experiment on IL-6 (Ab dose/mouse 5 μg), the “SAA, Mouse5” value came to 70; the “SAA, Mouse6” value amounted to 84; the “SAA, Mean” value amounted to 69.0.
